From US20240076386A1 (Pfizer, published 2024)

T1: human E-selectin, cell-surface expressed (human, UniProt P16581 22-610)
T1 sequence: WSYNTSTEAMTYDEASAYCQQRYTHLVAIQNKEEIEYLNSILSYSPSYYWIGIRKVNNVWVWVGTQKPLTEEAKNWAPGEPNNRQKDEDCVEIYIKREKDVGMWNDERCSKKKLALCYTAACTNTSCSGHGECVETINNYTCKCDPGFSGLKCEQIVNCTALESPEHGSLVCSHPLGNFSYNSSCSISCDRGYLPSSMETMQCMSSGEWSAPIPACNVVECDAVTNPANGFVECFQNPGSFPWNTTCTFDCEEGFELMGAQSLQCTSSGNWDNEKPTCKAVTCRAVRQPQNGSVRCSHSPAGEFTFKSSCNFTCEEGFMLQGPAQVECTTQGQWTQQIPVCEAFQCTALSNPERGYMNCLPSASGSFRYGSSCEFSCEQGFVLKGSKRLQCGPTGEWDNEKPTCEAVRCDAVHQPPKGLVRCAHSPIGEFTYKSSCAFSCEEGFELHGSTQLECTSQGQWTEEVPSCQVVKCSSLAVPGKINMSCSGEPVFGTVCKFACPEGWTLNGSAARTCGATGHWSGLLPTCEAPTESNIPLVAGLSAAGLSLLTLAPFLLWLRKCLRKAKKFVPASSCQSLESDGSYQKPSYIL

T2: cynomolgus monkey E-selectin, cell-surface expressed (cynomolgus monkey, UniProt P16581 22-610 (human entry))
T2 construct: also called CHO-cynomolgus monkey E-selectin cells; cynomolgus monkey CHO-E
T2 chain: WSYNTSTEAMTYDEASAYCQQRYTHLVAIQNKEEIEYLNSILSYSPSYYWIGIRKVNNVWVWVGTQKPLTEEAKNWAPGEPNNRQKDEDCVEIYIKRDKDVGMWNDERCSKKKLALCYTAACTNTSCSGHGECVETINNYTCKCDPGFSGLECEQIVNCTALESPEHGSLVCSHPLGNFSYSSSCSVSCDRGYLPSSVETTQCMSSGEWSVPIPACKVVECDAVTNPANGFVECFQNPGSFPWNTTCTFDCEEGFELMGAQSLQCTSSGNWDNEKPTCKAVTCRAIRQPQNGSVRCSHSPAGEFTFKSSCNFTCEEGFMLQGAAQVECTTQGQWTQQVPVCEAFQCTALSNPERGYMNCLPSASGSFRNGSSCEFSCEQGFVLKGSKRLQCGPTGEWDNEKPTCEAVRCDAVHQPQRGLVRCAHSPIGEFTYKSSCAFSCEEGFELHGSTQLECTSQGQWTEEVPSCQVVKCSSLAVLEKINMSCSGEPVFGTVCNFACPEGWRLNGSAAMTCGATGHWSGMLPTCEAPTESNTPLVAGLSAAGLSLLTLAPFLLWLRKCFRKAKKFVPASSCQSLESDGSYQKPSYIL


These binders were tested against T1, human E-selectin, cell-surface expressed (assay: cell-based or functional assay).

Row | static neutralization, HL-60 Cell adhesion CHO-Human E-selectin cells IC50 (nM) | Binder
1 | > 50 % inhibition at 444 nM | anti-E-selectin antibody 0180 chimera (antibody, human IgG1, kappa, V domains shown, rat VH/VL on effector-null human IgG1 and human kappa) VH: EVQLQQSGAELGKPGTSVKLSCKVSGYKIRSSYMHWVNQRPGKGLEWIGRIDPANGNTIYGDKFKSKATLTSDTSSNTAYIQLSQLKSDDTAIYFCAIDIGTTFDYWGQGVMVTVSS VL: DIQMTQSPSFLSASVGDRVTINCKASQHINRYLNWYQQKLGEAPKLLIYDANNLQTGIPSRFSGSGSGTDFTLTISSLQPEDVATYFCLQHNSWPNTFGAGTKLELKR
2 | > 50 % inhibition at 16.5 nM | anti-E-selectin antibody 0164 chimera (antibody, human IgG1, kappa, V domains shown, rat VH/VL on effector-null human IgG1 and human kappa) VH: EVQLQQSGAEFGKPGTSVKLSCKVSGYNIRSSYMHWVNQRPGKGLEWIGRIDPANGNTIYAEKFKIKAILTADSSSNTAYMQLSQLKSDDTAIYFCAMDLYSTSEYWGQGVMVTVSS VL: DIQMTQSPSFLSASVGDRVTINCKTSQNINRYLNWYQQKLGEAPKLLIYNANSLQTGIPSRFSASGSGTDFTLTINSLQPEDVATYFCLQDNSWPLTFGSGTKLEIKR
3 | > 50 % inhibition at 16.5 nM | anti-E-selectin antibody 0158 chimera (antibody, human IgG1, kappa, V domains shown, rat VH/VL on effector-null human IgG1 and human kappa) VH: QVQLKESGPGLVQPSETLSLTCTVSGFSISTYNVHWLRQPPGKGLEWMGMMWSGGSPDYNSALKSRLSISRDTSKNQVFLKMNSLQSEDTTTYYCARWGGGFDYWGQGVMVTVSS VL: DIVLTQSPTTLSVTPGETVSLSCRASHSIGTNLHWYQQKTNESPRLLIKFTSQSISGIPSRFSASGSGTDFTLNINNVEFDDVSSYFCQQTQSWPLTFGSGTKLEIKR
4 | > 50 % inhibition at 49.4 nM | anti-E-selectin antibody 0159 chimera (antibody, human IgG1, kappa, V domains shown, rat VH/VL on effector-null human IgG1 and human kappa) VH: EVQLQQSGAELGKPGTSVKLSCKVSGYNIRSTYMHWVSQRPGKGLEWIGRIDPANGNTIYAEKFKRKATLTADTSSNTAYMQLSQLKSDDRAIYFCAMEVRVSFEYWGQGVMVTVSS VL: DIQMTQSPSFLSASVGDRVTINCKASQNINKYLDWYQQKLGEGPKLLIYYTNNLHTGIPSRFSGSGSGTDFTLTISSLQPEDVATYFCLQHDSGYTFGAGTKLELKR
5 | > 50 % inhibition at 444 nM | anti-E-selectin antibody 0170 chimera (antibody, human IgG1, kappa, V domains shown, rat VH/VL on effector-null human IgG1 and human kappa) VH: EVQLQQSGAELGKPGTSVKLSCKVSGYSIRSTYMHWVNQRPGKGLEWVGRIDPANGNTIYAERFKNKATLTADTSSNTAYMQLSQLKSDDTAIYFCAVEILGIFDYWGQGVMVTVSS VL: DIQMTQSPSFLSASVGDRVTINCKASQNIDKYLDWYQQKLGEAPKLLMYNTNSLHTGIPSRFSGSGSGTDFTLTISSLQPEDVATYFCLQHNSGYTFGAGTKLELKR

Target: T2, cynomolgus monkey E-selectin, …
Experiment: competition ELISA on CHO cells vs sialyl Lewis ligand-PAA-biotin/SA-HRP
Procedure: In a static ligand cellular adhesion assay, horse radish peroxidase (HRP) conjugated E-selectin ligand (sialyl Lewis antigen) and E-selectin antibodies compete for binding to human or cynomolgus E-selectin expressed on Chinese hamster ovary (CHO) cells. The ability of anti-E-selectin antibodies to neutralize ligand binding was assessed in a static neutralization assay using a competition enzyme-linked immunosorbent assay (ELISA) to evaluate the neutralization of the sialyl Lewis antigen to Chinese hamster ovary cells (CHO) engineered to express human or cynomolgus monkey E-selectin.
CHO cells expressing E-selectin were seeded at 12,500 cells per well into a 96 well tissue culture plate and incubated at 37° C., 5% CO₂ for 48 hours to form a confluent monolayer. Plates were subsequently washed twice with 200 μL of calcium magnesium free PBS. Anti-E-selectin antibodies or an IgG1 isotype control (IgG control) were added to the assay in the presence of a small synthetic conjugate of biotinylated, sialyl Lewis A polyacrylamide (Carbosynth LLC, OS45446) or sialyl Lewis X polyacrylamide (Glycotech, 01-045) with streptavidin/horseradish peroxidase (100 μL total) and incubated at 37° C., 5% CO₂ for 2 hours. Plates were then washed twice with 200 μL of calcium and magnesium free PBS. Following the incubation, the cells were washed twice with 200 μL of wash buffer containing 2 mM of calcium chloride (50 mM TRIS [trisaminomethane], 150 mM sodium chloride; 0.05% polysorbate 20, pH 7.4; 2 mM calcium chloride). Signal was developed by adding 100 μL of 1-Step Ultra TMB substrate (Thermo Scientific, 34028) and incubating for 30 minutes at room temperature. Reactions were stopped using 2 M of sulfuric acid and absorbance was read at 450 nm (Spectramax M5e). Data were analyzed and graphed using GraphPad Prism software (Version 8.0.2).

Row | Binder | IC50
6 | optimized anti-E-selectin antibody 1282 (antibody, human IgG1, kappa, V domains shown, effector-null human IgG1, kappa) VH: EVQLVESGGGLVQPGGSLRLSCAASGYAIRSAYMHWVRQAPGKGLEWVARIDPANGNTIYVDSVEGRFTISADNAKNSAYLQMNSLRAEDTAVYYCAMDLYSTSEYWGQGTLVTVSS VL: DIQMTQSPSSLSASVGDRVTITCKTSQNIERYLNWYQQKPGKAPKLLIYAASSLQSGVPSRFSGSGSGTDFTLTISSLQPEDFATYFCLQDNAWPLTFGQGTKVEIKR | 1.29 nM
7 | optimized anti-E-selectin antibody 1448 (antibody, human IgG1, kappa, V domains shown, effector-null human IgG1, kappa) VH: EVQLVESGGGLVQPGGSLRLSCAASGYAIRSAYMHWVRQAPGKGLEWVARIDPANGNTIYVDSVKERFTISADNAKNSAYLQMNSLRAEDTAVYYCAMDLYSTSEYWGQGTLVTVSS VL: DIQMTQSPSSLSASVGDRVTITCKTSQNIERYLNWYQQKPGKAPKLLIYAASSLQSGVPSRFSGSGSGTDFTLTISSLQPEDFATYFCLQDNAWPLTFGQGTKVEIKR | 1.85 nM
8 | anti-E-selectin antibody 0164 chimera (antibody, human IgG1, kappa, V domains shown, rat VH/VL on effector-null human IgG1 and human kappa) VH: EVQLQQSGAEFGKPGTSVKLSCKVSGYNIRSSYMHWVNQRPGKGLEWIGRIDPANGNTIYAEKFKIKAILTADSSSNTAYMQLSQLKSDDTAIYFCAMDLYSTSEYWGQGVMVTVSS VL: DIQMTQSPSFLSASVGDRVTINCKTSQNINRYLNWYQQKLGEAPKLLIYNANSLQTGIPSRFSASGSGTDFTLTINSLQPEDVATYFCLQDNSWPLTFGSGTKLEIKR | 2.25 nM

The remaining lines, values ahead:

Row | IC50 | Binder
9 | 1.91 nM | optimized anti-E-selectin antibody 1284 (antibody, human IgG1, kappa, V domains shown, effector-null human IgG1, kappa) VH: EVQLVESGGGLVQPGGSLRLSCAASGYAIRSAYMHWVRQAPGKGLEWVARIDPANGNTIYVESVEGRFTISADNAKNSAYLQMNSLRAEDTAVYYCAMDLYSTSEYWGQGTLVTVSS VL: DIQMTQSPSSLSASVGDRVTITCKTSQNIERYLNWYQQKPGKAPKLLIYAASSLQSGVPSRFSGSGSGTDFTLTISSLQPEDFATYFCLQDNAWPLTFGQGTKVEIKR
10 | 2.65 nM | optimized anti-E-selectin antibody 1444 (antibody, human IgG1, kappa, V domains shown, effector-null human IgG1, kappa) VH: EVQLVESGGGLVQPGGSLRLSCAASGYAIRSAYMHWVRQAPGKGLEWVARIDPANGNTIYVDSVTGRFTISADNAKNSAYLQMNSLRAEDTAVYYCAMDLYSTSEYWGQGTLVTVSS VL: DIQMTQSPSSLSASVGDRVTITCKTSQNIERYLNWYQQKPGKAPKLLIYAASSLQSGVPSRFSGSGSGTDFTLTISSLQPEDFATYFCLQDNAWPLTFGQGTKVEIKR
